Assay [1] concerns the target SAV1 WW12 (aa E198-A268) (mouse) (UniProt Q8VEB2). Kind of assay: ITC. (In general: ITC needs no label: the signal is the heat of the interaction.)
In assay [2] the target is SAV1 S245D-WW12ex (mouse). Description: SEC-MALS. A general note: SEC sorts molecules by how far they enter the pores of the column.
Assay [3] deals with SAV1 Y273E-WW12ex (mouse). Description: ITC.

These results are taken from PMC7494017.

The substance “Dendrin PY23 with the PPPY motif changed into PPDY (from UniProt Q80TS7 222-241) (domain or fragment)” yielded a fold weakening of binding against WT dendrin PY23 in assay [1] of 18 fold. For SAV1 S245D-WW12ex (domain or fragment), in assay [2], the stoichiometry N – broadly, a count of units in the complex or per binding partner – is 2. Regarding “Dendrin PY23 (aa D222-G241) (from UniProt Q80TS7 222-241) (domain or fragment)”, the dissociation constant Kd (usually a measure of binding affinity in units of concentration) in assay [3] was 3.8 µM.
